Measured values reported in patent US20040157289.

Tests used:
[1] = Superose gel exclusion chromatography, self-association
[2] = aggregate size given for comparison with the gel exclusion result, self-association

Row | Substance | aggregate size [1] | aggregate size [2]
1 | alpha A crystallin Δ51+ construct | calculated to be 60,000 daltons, which corresponds in size to a tetramer | 
2 | wild type α-crystallin (alpha A crystallin) |  | about 800,000 daltons, depending on solution conditions
